Data taken from the supplement of paper PMC9112550, “Optimization of the antimicrobial peptide Bac7 by deep mutational scanning” (BMC Biology, 2022).

system: Escherichia coli TOP10; test: shrunken log2 fold change of peptide-encoding DNA abundance (4.5 h post-induction vs induction); higher = less antimicrobial activity (less host growth inhibition); details: time post-induction: 4.5 h; library: site-saturation at positions 5, 18, 19, 20
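Note: peptides expressed intracellularly from a pBAD plasmid library in pooled LB shake-flask culture, induced with 0.3% L-arabinose, DNA abundance read by NGS, three biological replicates, DESeq2 with apeglm shrinkage.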

Sequence	shrunken log2 fold change
RRIRSRPPRLPRPRPRPLQCPRP	0.116
RRIRWRPPRLPRPRPRPRAVPRP	0.521
RRIRGRPPRLPRPRPRPVHKPRP	0.518
RRIRYRPPRLPRPRPRPDCMPRP	0.0186
RRIRQRPPRLPRPRPRPPDEPRP	0.0836
RRIRNRPPRLPRPRPRPNGKPRP	-0.16
RRIRMRPPRLPRPRPRPGAYPRP	0.0666
RRIRLRPPRLPRPRPRPIDWPRP	-0.00448
RRIRDRPPRLPRPRPRPVIQPRP	0.474
RRIRGRPPRLPRPRPRPDTLPRP	0.169
RRIRQRPPRLPRPRPRPPIGPRP	2.89
RRIRGRPPRLPRPRPRPCHLPRP	-0.0648
RRIRYRPPRLPRPRPRPLIWPRP	-0.256
RRIRWRPPRLPRPRPRPQHYPRP	-0.574
RRIRKRPPRLPRPRPRPLSAPRP	0.402
RRIRARPPRLPRPRPRPMKFPRP	0.0174
RRIRLRPPRLPRPRPRPEMKPRP	-0.169
RRIRARPPRLPRPRPRPEHPPRP	0.652
RRIRVRPPRLPRPRPRPDKTPRP	-0.0309
RRIRARPPRLPRPRPRPEPKPRP	1.36
RRIRVRPPRLPRPRPRPYAGPRP	0.0438
RRIRGRPPRLPRPRPRPTCPPRP	0.419
RRIRSRPPRLPRPRPRPYVCPRP	-0.414
RRIRHRPPRLPRPRPRPYAKPRP	-0.0134
RRIRQRPPRLPRPRPRPKLHPRP	-0.201

Sequence	shrunken log2 fold change
RRIRDRPPRLPRPRPRPIKYPRP	-0.206
RRIRCRPPRLPRPRPRPPMFPRP	-0.121
RRIRFRPPRLPRPRPRPCGNPRP	-0.0344
RRIRARPPRLPRPRPRPKAWPRP	0.146
RRIRKRPPRLPRPRPRPGFTPRP	0.0173
RRIRWRPPRLPRPRPRPWMHPRP	-0.0548
RRIRDRPPRLPRPRPRPKRHPRP	0.214
RRIRQRPPRLPRPRPRPKGDPRP	0.00911
RRIRQRPPRLPRPRPRPNYEPRP	-0.123
RRIRWRPPRLPRPRPRPLFVPRP	-0.076
RRIRGRPPRLPRPRPRPGFPPRP	0.691
RRIRDRPPRLPRPRPRPDSLPRP	0.0462
RRIRYRPPRLPRPRPRPHCDPRP	-0.0698
RRIRERPPRLPRPRPRPWMWPRP	0.0673
RRIRDRPPRLPRPRPRPQFDPRP	-0.0102
RRIRRRPPRLPRPRPRPPRQPRP	1.04
RRIRLRPPRLPRPRPRPSICPRP	-0.0314
RRIRWRPPRLPRPRPRPHWKPRP	-0.018
RRIRHRPPRLPRPRPRPLLHPRP	-0.238
RRIRHRPPRLPRPRPRPTPGPRP	0.327
RRIRDRPPRLPRPRPRPKNMPRP	-0.482
RRIRNRPPRLPRPRPRPPVLPRP	0.124
RRIRSRPPRLPRPRPRPTKEPRP	-0.441
RRIRGRPPRLPRPRPRPRWVPRP	0.289
RRIRRRPPRLPRPRPRPTFPPRP	0.444

Sequence	shrunken log2 fold change
RRIRPRPPRLPRPRPRPHAAPRP	0.3
RRIRMRPPRLPRPRPRPTKYPRP	-0.152
RRIRQRPPRLPRPRPRPEQVPRP	0.107
RRIRKRPPRLPRPRPRPHDSPRP	-0.0516
RRIRIRPPRLPRPRPRPFAGPRP	0.0391
RRIRGRPPRLPRPRPRPMDRPRP	0.156
RRIRFRPPRLPRPRPRPINIPRP	-0.113
RRIRMRPPRLPRPRPRPHCLPRP	-0.0601
RRIRNRPPRLPRPRPRPSRCPRP	0.283
RRIRMRPPRLPRPRPRPIMHPRP	-0.128
RRIRLRPPRLPRPRPRPYFIPRP	-1.11
RRIRQRPPRLPRPRPRPTHDPRP	0.911
RRIRGRPPRLPRPRPRPIFMPRP	0.283
RRIRSRPPRLPRPRPRPVYNPRP	-0.974
RRIRPRPPRLPRPRPRPDRGPRP	0.0265
RRIRLRPPRLPRPRPRPLVDPRP	-0.0956
RRIRPRPPRLPRPRPRPVVRPRP	0.116
RRIRRRPPRLPRPRPRPMNEPRP	-0.0251
RRIRARPPRLPRPRPRPCCRPRP	0.406
RRIRERPPRLPRPRPRPASSPRP	0.0151
RRIRDRPPRLPRPRPRPWDIPRP	-0.0043
RRIRARPPRLPRPRPRPYYYPRP	-0.602
RRIRARPPRLPRPRPRPVTFPRP	0.0573
RRIRKRPPRLPRPRPRPSVYPRP	-0.0427
RRIRRRPPRLPRPRPRPGTTPRP	0.462
